Patent publication US20140248269A1 (NATIONAL CEREBRAL AND CARDIOVASCULAR CENTER, published 2014)

Molecular target: T1, natriuretic peptide receptor GC-A (human, UniProt P16066 33-1061)
T1 sequence (looked up): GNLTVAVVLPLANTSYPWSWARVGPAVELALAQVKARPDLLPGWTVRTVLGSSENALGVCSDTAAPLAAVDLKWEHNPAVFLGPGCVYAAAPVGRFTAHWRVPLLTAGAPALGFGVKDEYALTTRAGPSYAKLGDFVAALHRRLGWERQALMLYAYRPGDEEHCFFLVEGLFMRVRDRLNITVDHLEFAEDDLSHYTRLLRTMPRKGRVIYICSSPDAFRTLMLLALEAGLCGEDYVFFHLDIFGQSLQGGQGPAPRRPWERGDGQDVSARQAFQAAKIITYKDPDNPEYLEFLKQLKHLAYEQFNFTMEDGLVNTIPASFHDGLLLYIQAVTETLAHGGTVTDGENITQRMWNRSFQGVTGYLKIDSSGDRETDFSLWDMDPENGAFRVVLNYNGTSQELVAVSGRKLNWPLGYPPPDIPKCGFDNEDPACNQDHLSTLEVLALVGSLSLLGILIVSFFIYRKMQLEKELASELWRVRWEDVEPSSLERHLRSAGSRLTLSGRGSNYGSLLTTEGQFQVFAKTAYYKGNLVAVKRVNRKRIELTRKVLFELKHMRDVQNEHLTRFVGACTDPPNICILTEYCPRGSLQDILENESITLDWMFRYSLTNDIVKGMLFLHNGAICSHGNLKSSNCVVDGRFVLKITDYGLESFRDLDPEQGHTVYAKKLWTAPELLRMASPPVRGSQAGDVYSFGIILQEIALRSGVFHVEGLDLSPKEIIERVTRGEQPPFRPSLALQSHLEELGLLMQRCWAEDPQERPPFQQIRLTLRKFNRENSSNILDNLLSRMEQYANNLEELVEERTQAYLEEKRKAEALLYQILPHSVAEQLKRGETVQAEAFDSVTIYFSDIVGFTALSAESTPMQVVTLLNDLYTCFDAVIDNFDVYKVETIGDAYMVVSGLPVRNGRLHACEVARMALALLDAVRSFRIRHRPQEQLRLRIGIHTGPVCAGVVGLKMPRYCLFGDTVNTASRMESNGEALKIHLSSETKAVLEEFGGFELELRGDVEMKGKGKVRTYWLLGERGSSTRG
Test: cell-based or functional assay

ratio of suppression of EMT induced by TGF-β1 in terms of E-cad/Ncad (A549 cells, 1 µM): 52.9%
B1: LKL-ANP (mutant in which the amino acids at positions 10 to 12 of hANP are replaced with LKL) (peptide)
peptide: SLRRSSCFGLKLDRIGAQSGLGCNSFRY
